Measurements reported in the DeepSol protein solubility set.

Experiment: soluble on expression in E. coli; label from the status in PepcDB or PDB records

Sequence | soluble on expression in E. coli
MSQSNLIQTDRFVLSETERSSIEHEMHHYEDPRAASIEALKIVQKQRGWVPDGAIPAIGEVLGIPASDVEGVATFYSQIFRQPVGRHIIRVCDSMVCYIGGHESVVGEIQKQLGIGLGQTTADGRFTLLPVCCLGNCDKAPALMIDDDTHGDVRPDGVAKLLEAYV | not soluble
MVERLEALFDALAELTGQRNAIDAKIVQIVAEIDRDGLWGATGARSISALVAWKTGASERNAKAIAAVAHRAEEFPRCVQGLGAGRLSLDQVGVIAEGAADGSDEHYAALASVATVSQLRKAISLEPKPEPEPKPDPRRSIRTNPGDGYTTYHITLPRLEAAKFDTALEASHEGLIARWEREQDPGDPAVPMPDLVDAFMALVETGWDREATRRPHGQHTAVAVHVDLKSKVAALHLGPLLGDDERRLLTCDATCEVWFELRGRVIGTGRATRTVNRRLRRALEHRDRCCVVPGCSATRGLHAHHLVHWEDGGLTEMANLVLLCPYHHRAHHRGLITITGPADQLTVTDDRGRLLTNQSLARTPLEHHHHHH | soluble
MFTAGSATVTPKLNGVAGPAFQVIKDSLTLGLNALTLTDVTKNAAYGVEIESLVLEINAPAA | soluble
MYTEYQPSRLLAPYIDNYWEFKGTPEYGMRIHILPDGCTDFIFTLGEAVSKVKEETLVMQPYRSYFVGPMTKYSELVTYAEFVHQFGVRFLPCGLSGFTKLPLHEFANYRISTNEMQAVFDSTFIERLCEQNDVRGRIQVVEEYLLAYLAHNYQPVDTQVAAAVNIINQSAGKRSVRSLMDEVCLCQRHFERKFKHNTGFTPKEYSRIVKFKNAVELLRNTTSVNLLTTAIDAGYYDLAHFSKEIKTLSGNTPSSFLSLTVPEDITLTYIEP | soluble
MGHVVKVALLGLGEVGEKFAEHFLEKIQEDRANVEIVAVAHRDLESPVALGFVHSKVPVFKDAMEVVTLGAKVDIIFDLTGDPEVRRKLRIALQESHNQHTVIAPEVVAHLLWNFFGEGELPRSNRTGY | soluble
MGSDKIHHHHHHYKDLSQLKSEVDRLCRLCPWDWTFFNGNCYFFSKSQRDWHDSMTACKEMGAQLVIIKSHEEQSFLQQTSKKNSYTWMGLSDLNKEGEWYWLDGSPLSDSFEKYWKKGQPNNVGGQDCVEFRDNGWNDAKCEQRKFWICKKIATTCLS | not soluble
MGSDKIHHHHHHMKPIDLDKLDLLTLSILVSLYENKSATHVSRILDVPASKISRCLHTARLIFGDELFIRRKYGLVPNDYAGKIYPIAKEIVECAKHFNRLNSAEQSHNRYFELVIPGMIAYAYPRALMKAIKEHNKNIHINVSSWSSHSLESVTSDPHCIVMCCCKGPEEILCFDQKLQVEVLATMNRQYLLSCRKHPILKQDISLETIAKYPYINTFIGTQAPILNPFQEYCQAKDLSLNTEMTITSVSSLFDYLSDCQSLAITPYKAVYDMLDDDSGLHACQLSEYECNRLFEVVEPLKLVLVTHPSADNEDTAWLKQQIRELTHELI | not soluble
MDIMLVLWNGTPPMTRPEIEKVINTKKKLASTTILSLLTRLESKNFVEVTKQGKLNLYTPLVSQSDYQAHESQSVLEKLYGNSLKKFVTSLYQGKKISSEEIHELSDFLKELEDGEE | not soluble
SLSIELDLQLAVENEHGLPSEAEFALWLTRTITPFQAQAEVTVRIVDEAESHALNLNYRGKDKPTNVLSFPFEAPSGMEMDLLGDLVICRQVVEREAIEQNKPLQAHWAHMVVHGSLHLLGYDHIEDDEAEEMESLETEIMQEMGFTDPYLAEKE | not soluble
MRLTKQTNYAVRMLMYCAANEGKLSRIPEIARAYGVSELFLFKILQPLNKAGLVETVRGRNGGVRLGKPAEKISLFDVVRVTEDSFAMAECFEDGAVECPLVDSCGLNSALRKALNAFFDVLAEYSIDDLVKARPQINFLLGIDTEMPKIAALPAA | not soluble
MSMAMSQSNRELVVDFLSYKLSQKGYSWSQFSDVEENRTEAPEGTESEAVKQALREAGDEFELRYRRAFSDLTSQLHITPGTAYQSFEQVVNELFRDGVNWGRIVAFFSFGGALCVESVDKEMQVLVSRIAAWMATYLNDHLEPWIQENGGWDTFVELYGNNAAAESRKGQERLEHHHHHH | soluble
MSLDGGYRTLAAAELFKRYGHLISPVSGPIAYLHPMPGRNAGMRHMYVAGYLVCPPSAPRENRFDKLCSGKGASDAQARASALAEALERFSGVYQGDEAALRGSLAQLSAHAPPGSGPIDVNALQQYSDRQFERRERHNATTDDPRKQVPRRFTRDSVIDWTPAWSIATGARRLVPLAYCYAETPASSGADYCVHNPNGCAAGACIEEAILQGLLELVERDAVAIWWYNMLRRPAVDIESFGDPYFDALAADYASLGWRLWALDITHDLRIPVFVALARETATGRFSIGFGCHPDSRIALQRALTEVNQLLDVGASAPPPWDVDKLPDDAFLHPDPALPPVRAPARAPHGRCDLKRDIEDCVARLAAAGIDTLVVDKTRPDIGLPVVQVIAPGLCHFWPRFGAPRLYSVPVAQRWRERPRDEDALNRAEGHHHHHH | not soluble
MNVNGENNEKIDEHHLESSLAGVPTLPVSPLDHAKDLSQTNPNAQIGDLVTQTANLIAIKKQLLEDIAFNQHIQSMQVRAIQSFPQNNQVAPPFQQFDPRRRGLARMQKPESYKTVICQAWLESKTCSFADNCRFAHGEEELRPTFVEPLQNNKYKTKLCDKYTTTGLCPYGKRCLFIHPDHGPNAYIRADKLLEVSQRHALADIRDQMEQHIMTNGRIAAPPLSAIQHPLEMFARPSTPDEPAAKLPLGPTPVSTRGPRYELPTKELHDAEGAMTYPPSRWPLDPSMFALDAWNMAHRPASPLDSMVLGSAPNAGSFGMLGKQNTPGGVSGYSSAGSTPSQDLSSSSLNAASAAAAAAYFANSAVAQSLLMKSVATDPMMSCNGPFSPMPGFDQLAENMTKHLNLW | not soluble
LTELYDAIPASIIIIDERMRLIGWNRFSRDTINGLSDNEMPGINPMKRVHPDDLPEMIRKMRNVIDLDIELSAEFRMYHKSGPPYKWAMCRGKRTIIEGKTCVVAVVTEIT | not soluble
MSLMPPFLRILGIETSCDETAASIVVRHADGRGEIVSDVVLSQLEEHSAYGGVVPEIAARAHVEALDTLVEEALDQAGVKLADVDAIAATSGPGLIGGLLVGLMTGKAIAKAAGKPLYAINHLEGHALTARLTDGLSFPYLMLLVSGGHTQLVLVRGVGEYERWGTTIDDALGEAFDKTAKLLGLPYPGGPAVENAAAKGDPDRFPLPRPMVGEARLDFSFSGLKTAVRQAATAIAPLSEQDIADICASFQKAVSRTLKDRIGRGLARFKVEFPHINGEPALVVAGGVAANQEIRQTLQALCDTHGFRFVAPPHRLCTDNAAMIAWAGLERMAEGRQADALEVAPRSRWPLDGSAETLIGFGKRGAKAEGHHHHHH | not soluble
MGHHHHHHMLENIRDAVRKFLTGSTPYEKAVDEFIKDLQKSLISSDVNVKLVFSLTAKIKERLNKEKPPSVLERKEWFISIVYDELSKLFGGDKEPNVNPTKLPFIIMLVGVQGSGKTTTAGKLAYFYKKRGYKVGLVAADVYRPAAYDQLLQLGNQIGVQVYGEPNNQNPIEIAKKGVDIFVKNKMDIIIVDTAGRHGYGEETKLLEEMKEMYDVLKPDDVILVIDASIGQKAYDLASRFHQASPIGSVIITKMDGTAKGGGALSAVVATGATIKFIGTGEKIDELETFNAKRFVSRILGMGDIESILEKVKGLEEYDKIQKKMEDVMEGKGKLTLRDVYAQIIALRKMGPLSKVLQHIPGLGIMLPTPSEDQLKIGEEKIRRWLAALNSMTYKELENPNIIDKSRMRRIAEGSGLEVEEVRELLEWYNNMNRLLKMVK | soluble
MTSLSQFEPLFLEFMQQEMQVDAAHDIEHVKRVVKTAKQLCDEENADIAIVLPAAYLHDCFTYPKDHPNRKQSSAIAAKKAIAYLESIQYPQHYHDAIAHAIEAHSFSANIRPNTLEAQIVQDADRLDALGAIGVTRCIQVSTHFNAQLYNDNDMFAKERELNDKQFTVDHFQTKLFKIADTMNTESAKLEANKRKAFMQTYLKQLHDEVTALEHHHHHH | soluble
MTDKSKTEKLISSDDKQSVIDGILDMVFNSKAYEVPWISEKLMELSKNKDLDIAGLSLTCFGHLARLHSNIGDYDKVIPLLHSKQDDPELQGRAEDALEDISLFLSENH | not soluble
MSLDTEAVLAAVEDAPVRETLDSMVASLKSHEDSEFAGAIATFTGRVRERDDPDDTPTQHLEFERYDTVAEQRMATIREQLCERDGVYDVRMHHRTGVVPAGDDVVHVVVLAGHRGDAFRAVSDGIDRLKDEVPLFKKEVTVDDAFWRHDEGHHHHHH | soluble
